Data taken from publication PMC7347655, “Mutational analysis of the essential lipopolysaccharide-transport protein LptH of Pseudomonas aeruginosa to uncover critical oligomerization sites” (Scientific Reports, 2020).

B1: LptH_β15del (natural protein)
chain: LPSDREQPIRVQADSAELDDKQGVAVYRGDVVVTQGSTKLTGNTVTLKQDKNGDIEVVTSVGKPAYYEQKPAPDKDVTKAYGLTIQYFVTQNRVVLIDQAKVIQEGNTFEGEKIVYDTQRQIGRATGSQVTSPRPRIDMVIQPKKKAQ
notes: As m1 with a 3-residue deletion in strand β15; aggregation prevented concentrations above 0.9 mg/mL; not shown: His6, N-terminal, kept
B2: wild-type LptH (natural protein, Pseudomonas aeruginosa, UniProt Q9HVV7 25-175, looked up)
chain: LPSDREQPIRVQADSAELDDKQGVAVYRGDVVVTQGSTKLTGNTVTLKQDKNGDIEVVTSVGKPAYYEQKPAPDKDVTKAYGLTIQYFVTQNRVVLIDQAKVIQEGNTFEGEKIVYDTQRQIVNAGRATGSQVTSPRPRIDMVIQPKKKAQ
notes: Cloned NdeI/HindIII into pET28b; the vector's linker between the His tag and the protein is not described; no tag removal is described; also called LptH6His; PA4460; not shown: His6, N-terminal, kept
B3: LptH_β15mut (natural protein)
chain: LPSDREQPIRVQADSAELDDKQGVAVYRGDVVVTQGSTKLTGNTVTLKQDKNGDIEVVTSVGKPAYYEQKPAPDKDVTKAYGLTIQYFVTQNRVVLIDQAKVIQEGNTFEGEKIVYDTQRQIEPDGRATGSQVTSPRPRIDMVIQPKKKAQ
notes: not shown: His6, N-terminal, kept

Molecular target: the molecule itself
Assay: SEC; 100 uL of purified protein (0.9-2.0 mg/mL, a stated concentration for each variant) on a TSK-GEL G3000PWXL column, 20 mM Tris-HCl pH 8.0, 250 mM NaCl, 0.7 mL/min, detection at 280 nm; oligomerization state estimated from the apparent MW by a calibration curve

Row | Protein | stoichiometry N
1 | B1 | 2
2 | B2 | 2
3 | B3 | 2
